Assay results reported in patent US20240254204A1 (NATIONAL UNIVERSITY OF SINGAPORE, published 2024).
Residue numbers refer to the chain shown, from its start. Values joined by “and” are separate entries in the source; they are usually repeats but may differ in a detail not shown here. Equal values may be shown once.

Legend:
Experiment in all cases: cell-based or functional assay
[1] = target: SARS-COV-2 Wuhan-hu-1 (ancestral) full-length spike (SARS-CoV-2)
[2] = target: SARS-COV-1 full-length spike (SARS-CoV)
WIV-1 full-length spike = WIV-1 full-length spike (SC1r-CoV WIV-1)

Measured: pseudovirus neutralization NT50

B1: Antibody 11 (SS6V11-E7) (antibody, V domains shown)
VH: QVQLQESGPGLVKPSETLSLTCTVSGGFIGPHYWSWVRQPPGKGLEWIGYIYISGSTNYNPSLKSRLTISVDMSKSQFSLTLSSATAADTAVYYCARGGGYLETGPFEYWGQGTLVTVSS
VL: DIVMTQSPLSLPVTPGEPASISCRSSQSLLQNNGYNYLAWYLQKPGQSPQLLIYLSSTRASGVPDRFSGSGSGTDFTLKISRVEAEDVGVYYCMQSLQIPGTFGQGTRLEIK
< 10 ng/ml and < 0.067 nM: [1] | [2] | WIV-1 full-length spike

B2: Antibody 20 (SS6V20-F5) (antibody, V domains shown)
VH: QVQLQESGPGLVKPSETLSLTCTVSGGSIIGYYWSWIRQPPGKGLEWIGYIYFSANTNYNPSLKSRVTMSVDMSKKQFSLKLRSVTAADTAVYYCARGGGYLETGPLDFWGQGILVTVSS
VL: B1 VL with L30M, N32L, K44R, S56G, S81T, S96G
< 10 ng/ml and < 0.067 nM: [1] | [2] | WIV-1 full-length spike

B3: Antibody 13 (SS6V13-F1) (antibody, V domains shown)
VH: QVQLQESGPGLVKPSETLSLTCSVSGVSILGSYWGWIRQPPGTGLQWIGYIYFSENTNYNPSLQSRVTMSLDTSKNLLSLKLSSVTAADTAVYYCARGGGYLETGPFDSWGQGTLVTVSS
VL: B1 VL with S28G, L30V, N32S, S56G, T58N, S96G, I99T
< 10 ng/ml and < 0.067 nM: [1] | [2] | WIV-1 full-length spike
